Results on one protein are retold here after patent publication US20090074790.

The target in this data set is recombinant GST-Smad2 fusion protein, phosphorylated in vitro by TβR-I kinase, Q15796.
Chain of recombinant GST-Smad2 fusion protein, phosphorylated in vitro by TβR-I kinase, Q15796 (Q15796 whole entry, the tested form may be a part): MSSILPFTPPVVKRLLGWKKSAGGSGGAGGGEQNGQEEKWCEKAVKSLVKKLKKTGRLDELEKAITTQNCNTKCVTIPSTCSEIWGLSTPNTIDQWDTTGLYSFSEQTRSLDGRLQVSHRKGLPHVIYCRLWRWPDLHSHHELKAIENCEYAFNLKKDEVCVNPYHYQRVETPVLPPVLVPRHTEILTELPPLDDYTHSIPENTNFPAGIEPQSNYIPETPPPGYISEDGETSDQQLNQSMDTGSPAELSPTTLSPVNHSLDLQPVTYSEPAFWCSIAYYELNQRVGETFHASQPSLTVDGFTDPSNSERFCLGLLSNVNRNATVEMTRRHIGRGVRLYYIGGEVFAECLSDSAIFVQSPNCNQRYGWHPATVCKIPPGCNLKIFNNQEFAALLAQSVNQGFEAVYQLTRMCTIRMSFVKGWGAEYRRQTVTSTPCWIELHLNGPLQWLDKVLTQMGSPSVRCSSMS

B1: purified recombinant constitutively active TβR-I kinase (protein)
chain: CHNRTVIHHRVPNEEDPSLDRPFISEGTTLKDLIYDMTTSGSGSGLPLLVQRTIARTIVLQESIGKGRFGEVWRGKWRGEEVAVKIFSSREERSWFREAEIYQTVMLRHENILGFIAADNKDNGTWTQLWLVSDYHEHGSLFDYLNRYTVTVEGMIKLALSTASGLAHLHMEIVGTQGKPAIAHRDLKSKNILVKKNGTCCIADLGLAVRHDSATDTIDIAPNHRVGTKRYMAPEVLDDSINMKHFESFKRADIYAMGLVFWEIARRCSIGGIHEDYQLPYYDLVPSDPSVEEMRKVVCEQKLRPNIPNRWQSCEALRVMAKIMRECWYANGAARLTALRIKKTLSQLSQQEGIKM
In the case of B1, the “in vitro kinase assay, density of the pSmad2 band on Western blot” value is “a band of approximately 58 kDa, the density of which is proportional to the amount of active enzyme”.
